The record followed here is patent US8748176B2, “Generation of choroid plexus epithelial cells from human embryonic stem cells” (The Regents of the University of California, priority 2011, dated 2014).

One experiment deals with primary CPEC vesicles. As to the kind of experiment: CPEC vesicle secretion assay with secretion inhibitors, primary CPECs. In kind it is cell-based, mouse. Particulars: 100 uM acetazolamide and 5 mM ouabain together, 24 hrs; regrew upon withdrawal. The text has this:
(§1) To assess functional activity, we adopted a well-established in vitro assay for CPEC vesicle formation and secretion (33, 34). As described previously using this assay, primary dissociated CPECs on Matrigel self-assembled into hollow vesicles that grew in diameter, collapsed after treatment with the secretion inhibitors acetazolamide and ouabain, and regrew upon inhibitor withdrawal (FIG. 5A-G). Indistinguishable vesicles formed from dissociated SFEBq aggregates treated with BMP4 (n=6/6 independent cultures), but not from controls (n=0/6; FIGS. 5H,I). Like the primary CPEC vesicles, the SFEBq-derived vesicles were Aqp1 positive (FIG. 5I, inset), grew (FIGS. 5J,K), collapsed after exposure to the secretion inhibitors (FIG. 5L), and recovered after inhibitor removal (FIG. 5M).
(§2) Primary CP cells or SFEBq-derived cells were cultured on Matrigel as previously described (33, 34). Briefly, Matrigel (BD Biosciences, San Jose, Calif.) was mixed 1:1 with DMEM (Invitrogen) and incubated for at least 30 min at 37 C. BMP4-treated SFEBq aggregates at 12 DIV were dissociated with TrypLE Express (Invitrogen) and plated at 500,000 to 600,000 cells/well onto Matrigel-coated 6-well plates in DMEM with 10% FBS, 2 mM L-glutamine, NEAA, and sodium pyruvate (Invitrogen). […]

For another experiment, the system named is SFEBq-derived vesicles. The experiment in a line: CPEC vesicle secretion assay with secretion inhibitors, mESC-derived vesicles. In kind it is cell-based, mouse. Conditions: 100 uM acetazolamide and 5 mM ouabain together, 24 hrs; recovered after removal.
From the text: as §1, §2

The next experiment deals with mESC-derived NECs. As to the kind of experiment: BMP4 treatment of mESC-derived SFEBq aggregates, CPEC/NEC marker RT-qPCR. In kind it is cell-based, mouse. As to the method: Significant and similar levels of CPEC gene induction were also seen with one-time BMP4 addition alone (data not shown). These findings indicate a relatively short and early critical period in culture for BMP4-mediated CPEC marker induction, which occurs at the expense of NEC markers.
(§3) These were performed as described (21, 26) on a StepOne Plus (Applied Biosystems, Carlsbad, Calif.) using 18S normalization and Excel for graphing and statistics (two-tailed t-tests assuming equal variance). All primers and amplicons were validated as described (21, 26). All studies represent n>2 biological replicates per condition, unless otherwise specified.
Neural differentiation was adapted from Eiraku et al. (29). Briefly, mESCs were passaged for two hours onto gelatin-coated plates to reduce MEF load, dissociated to single cells using trypsin, then plated at varying concentrations onto ultra-low attachment U-bottom 96-well plates (Corning #7007, Lowell, Mass.) to form SFEBq aggregates. Differentiation media (29) was replaced initially, then every other day, with fresh media containing 0.5 to 50 ng/ml BMP4 (R&D Systems). Neural rosette (NR) cultures were based on the Elkabetz et al. method (30). […] For the combined SFEBq/NR method, we first generated SFEBq aggregates for 5 DIV, then transferred aggregates into adherent mNR conditions for another 2 DIV (7 DIV total).
Background: Real-time PCR tracks product formation cycle by cycle.

Experiment [1] relates to mESC-derived NECs plated as adherent monolayers. As to the kind of experiment: combined aggregation-monolayer system, CPEC markers by RT-qPCR and immunocytochemistry. It is filed as cell-based, mouse. How it is done: In addition to direct BMP4 applications to SFEBq aggregates, we also dissociated SFEBq aggregates into single cells after 5DIV (i.e. after they had differentiated into NECs), plated them as adherent monolayers onto PDL-laminin-coated plates at 300,000-600,000 cells, then added BMP4 (0.5-50 ng/ml BMP4) for another 5 days (10DIV total). This combined aggregation-monolayer system allows all NECs to experience the same BMP4 concentration in culture. […] The optimal concentration of BMP4 is probably between 0.5 ng/ml-50 ng/ml BMP4 in this system.
as §3

Experiment [2] concerns dissociated SFEBq aggregates. The experiment in a line: in vitro assay for CPEC vesicle formation on Matrigel. It is filed as cell-based, mouse. Conditions: SFEBq aggregates treated with 50 ng/ml BMP4; controls n=0/6.
From the text: as §1, §2

The test system of a further experiment is H1-derived NRs. The experiment in a line: BMP4 addition to hESC-derived neural rosettes (NR method). It is filed as cell-based, human. Particulars: BMP4 0.5-15 ng/ml, evident by 7 DIV after addition. The text has this: We then attempted to derive iCPECs from human ESCs using an analogous approach. To first generate NECs, we used the Zhang et al. method (35) to generate neural rosettes (NRs) (FIGS. 6A,B) with predominant forebrain character (30). […] Eventually, the hESC-derived vesicles transformed into flat epithelial sheets (FIG. 6D), and occasional multivesicular bodies also formed (FIG. 6E). […] H9 cultures yielded similar morphologic changes, although NR-to-vesicle transformations were less prominent.
1) Neural rosette (NR) method. Neural induction with NR formation was adapted from Zhang et al. (35). Human ESC colonies were partially dissociated with 1 mg/ml dispase, then plated in suspension to form embryoid bodies (EBs) for 3 DIV. EBs were then transferred to suspension culture with neural induction media—DMEM/F12 (Invitrogen), N2 (Invitrogen), NEAA, heparin (2 ug/ml) and FGF2 (20 ng/ml)—for another two days. On 6 DIV, EBs were transferred to adherent PDL/laminin-coated plates with neural induction media, which was fully replaced every other day. On 16 DIV, media was fully replaced with neural induction media containing BMP4 (0.5-15 ng/ml), with full media replacement every other day. […] The SFEBq media was changed every 3 days, with or without fresh BMP4, and the culture was analyzed after 1-2 weeks of BMP4 incubation, with greater CPEC differentiation detected at 2 weeks.

In the next experiment the test system is H9 hESC SFEBq aggregates. As to the kind of experiment: BMP4 applied to H9 hESC SFEBq aggregates, CPEC marker expression. It is filed as cell-based, human. Conditions: BMP4 0-15 ng/ml, 18 to 24-DIV aggregates. How it is done: We also generated human CPECs by applying the SFEBq neural induction method to human ESCs (H9 line). H9 hESCs were optimized for aggregate size and assessed for NEC gene expression over time. 9000-cell SFEBq aggregates were optimal, and NEC expression plateaued by 18-24 DIV. BMP4 (0-15 ng/ml) was applied to 12-, 15-, 18-, 21-, and 24-DIV aggregates. […] Based on RT-qPCR studies, peak expression of NEC markers, but not radial glial markers, coincided with the 21 DIV aggregates.
1) Neural rosette (NR) method. Neural induction with NR formation was adapted from Zhang et al. (35). Human ESC colonies were partially dissociated with 1 mg/ml dispase, then plated in suspension to form embryoid bodies (EBs) for 3 DIV. EBs were then transferred to suspension culture with neural induction media—DMEM/F12 (Invitrogen), N2 (Invitrogen), NEAA, heparin (2 ug/ml) and FGF2 (20 ng/ml)—for another two days. On 6 DIV, EBs were transferred to adherent PDL/laminin-coated plates with neural induction media, which was fully replaced every other day. On 16 DIV, media was fully replaced with neural induction media containing BMP4 (0.5-15 ng/ml), with full media replacement every other day. 2) Aggregate (SFEBq) method. […] The SFEBq media was changed every 3 days, with or without fresh BMP4, and the culture was analyzed after 1-2 weeks of BMP4 incubation, with greater CPEC differentiation detected at 2 weeks.

In the case of `CC(=O)Nc1nnc(S(N)(=O)=O)s1` [acetazolamide], the “vesicle response to secretion inhibitors” value in the experiment on primary CPEC vesicles and in the experiment on SFEBq-derived vesicles was “collapsed” in each case.
Take `C[C@@H]1O[C@@H](O[C@H]2C[C@@H](O)[C@]3(CO)[C@H]4[C@H](O)C[C@]5(C)[C@@H](C6=CC(=O)OC6)CC[C@]5(O)[C@@H]4CC[C@]3(O)C2)[C@H](O)[C@H](O)[C@H]1O` [ouabain]: the “vesicle response to secretion inhibitors” value in the experiment on primary CPEC vesicles and in the experiment with SFEBq-derived vesicles was “collapsed” each time.

B1: BMP4: Bone Morphogenetic Protein 4 (GeneID: 652), recombinant, commercially available (R&D Systems) (protein, UniProt P12644 293-408, looked up)
Bone morphogenetic protein 4: SPKHHSQRARKKNKNCRRHSLYVDFSDVGWNDWIVAPPGYQAFYCHGDCPFPLADHLNSTNHAIVQTLVNSVNSSIPKACCVPTELSAISMLYLDEYDKVVLKNYQEMVVEGCGCR
As to B1, the “CPEC markers Ttr, Lmx1a, and Msx1 induction” value in the experiment on mESC-derived NECs (5-day aggregates, BMP4 5 or 50 ng/ml for 7 DIV) was “markedly induced”. Moreover, the “CPEC markers Aqp1 and Cldn1 induction” value with mESC-derived NECs (5-day aggregates, BMP4 concentration-dependent) is “strongly induced”. In the experiment with mESC-derived NECs (with increasing BMP4 concentration), the “NEC markers Sox1 and Foxg1 expression” value is recorded as “downregulated”. The “CPEC markers by RT-qPCR at 50 ng/ml” value in experiment [1] (50 ng/ml BMP4) was “down-regulation of CPEC markers”. In experiment [1] (0.5-50 ng/ml BMP4 for 5 days, 10DIV total), the “optimal BMP4 concentration for CPEC marker upregulation” value is 5 ng/mL. Besides, in experiment [2], the “independent cultures forming vesicles on Matrigel” value is reported as 6/6. Further, the “morphologic transformation of neural rosettes” value with H1-derived NRs is given as “transformed directly into expanding vesicular structures”. The “CPEC markers Ttr, Otx2, and Lmx1a expression” value in the experiment with H9 hESC SFEBq aggregates is given as “upregulated”.
